Reference: patent publication US20100305026A1

Molecular target: CD44v6 (endogenous human CD44 variant isoforms containing exon v6) (human), P16070
Experiment: cell-based or functional assay

B1: human CD44v6 14-mer peptide having SEQ ID NO: 2 (peptide)
peptide: KEQWFGNRWHEGYR
- entry of InlB-coated latex beads into HeLa cells (block of entry): 100%
